In the Immune Epitope Database (IEDB) one finds Kd data, which are given here for 1 sequence.

Among the targets are HLA-B*35:01; HLA-B*53:01; HLA-B*07:02; HLA-B*35:03; HLA-B*42:01; HLA-B*54:01; HLA-B*51:01.
Holding throughout (test): IEDB peptide-MHC binding, purified MHC/competitive/radioactivity; filed as Kd, often an IC50 or EC50 that approximates it; ≥ and ≤ were set here for values at or beyond the usual limits of such assays
What all share (conditions): source organism: Toxoplasma gondii

Regarding HPGSVNEFDF, the dissociation constant Kd stood at 2.09 µM with HLA-B*35:01; 5.52 µM with HLA-B*53:01; 3.62 µM with HLA-B*07:02; 11.5 µM in the assay with HLA-B*35:03; 0.877 µM with HLA-B*42:01; 0.854 µM in the assay with HLA-B*54:01. For the same sequence, the Kd with HLA-B*51:01 turned out to be 14.7 µM.
